Test results taken from patent US20210340211A1 (UNIVERSITY OF COPENHAGEN, published 2021).
Ends that are not written are not given here.

B1: GIP(9-30)NH2 (peptide)
peptide: DYSIAMDKIHQQDFVNWLLAQK-NH2
notes: also called human GIP(9-30)NH2; hGIP(9-30)
B2: GIP(4-30)NH2 (peptide)
peptide: GTFISDYSIAMDKIHQQDFVNWLLAQK-NH2
notes: also called human GIP(4-30)NH2; hGIP4-30
B3: GIP(3-30)NH2 (peptide)
peptide: EGTFISDYSIAMDKIHQQDFVNWLLAQK-NH2
notes: also called human GIP(3-30)NH2; hGIP(3-30)NH2
B4: GIP(2-30)NH2 (peptide)
peptide: AEGTFISDYSIAMDKIHQQDFVNWLLAQK-NH2
notes: also called human GIP(2-30)NH2; hGIP(2-30)
B5: GIP(5-30)NH2 (peptide)
peptide: TFISDYSIAMDKIHQQDFVNWLLAQK-NH2
notes: also called human GIP(5-30)NH2; hGIP5-30
B6: GIP(8-30)NH2 (peptide)
peptide: SDYSIAMDKIHQQDFVNWLLAQK-NH2
notes: also called human GIP(8-30)NH2; hGIP(8-30)
B7: GIP(7-30)NH2 (peptide)
peptide: ISDYSIAMDKIHQQDFVNWLLAQK-NH2
notes: also called human GIP(7-30)NH2; hGIP(7-30)
B8: GIP(6-30)NH2 (peptide)
peptide: FISDYSIAMDKIHQQDFVNWLLAQK-NH2
notes: also called human GIP(6-30)NH2; hGIP(6-30)

Legend:
human GIP receptor [1] = target: T1, human GIP receptor (human, UniProt P48546 22-466); test: cell-based or functional assay
T1 sequence (looked up): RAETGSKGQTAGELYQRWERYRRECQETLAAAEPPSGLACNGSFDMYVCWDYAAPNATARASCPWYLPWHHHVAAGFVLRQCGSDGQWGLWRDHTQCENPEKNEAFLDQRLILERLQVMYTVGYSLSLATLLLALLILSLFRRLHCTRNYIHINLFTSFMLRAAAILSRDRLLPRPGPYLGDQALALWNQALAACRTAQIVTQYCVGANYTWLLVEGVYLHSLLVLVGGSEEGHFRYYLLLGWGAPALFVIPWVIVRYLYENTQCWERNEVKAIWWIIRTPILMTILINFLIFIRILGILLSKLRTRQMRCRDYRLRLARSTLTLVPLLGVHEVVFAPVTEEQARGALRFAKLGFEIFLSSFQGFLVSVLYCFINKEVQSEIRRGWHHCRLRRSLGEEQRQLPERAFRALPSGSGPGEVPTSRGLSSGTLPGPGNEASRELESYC

human GIP receptor [2] = target: T1, human GIP receptor; test: cell-based or functional assay; remark: listed apart in the source
human GIP receptor [3] = target: T1, human GIP receptor; test: competition binding vs 125I-GIP(1-42), COS-7 cells transfected with human GIP receptor
Method: (§1) Nonspecific binding was determined as the binding of radioligand to untransfected cells. All determinations were made in duplicates, and all experiments repeated at least three times. The samples were analyzed for radioactivity using a Wallac Wizard 1470 Gamma Counter (GMI Inc., Minnesota, USA). The number “n” refers to individual experiments with separate transfections although from same cell line.
(§2) Statistical analyses (unpaired t-tests) of two parameters were also performed with GraphPad Prism 6.0. […] Kd is the dissociation constant determined by homologous receptor binding.

human GIP receptor [4] = target: T1, human GIP receptor; test: cell-based or functional assay; remark: listed apart in the source
human GIP receptor [5] = target: T1, human GIP receptor; test: competition binding vs 125I-hGIP, COS-7 cells transfected with hGIPR
Method: COS-7 cells were seeded in clear 96-well plates the day after transfection using a number of cells/well that obtained 5-10% specific binding of the added radioactive ligand. […] After incubation, the cells were washed twice in ice-cold binding buffer and lysed using 200 mM NaOH with 1% SDS for 30 min. Nonspecific binding was determined as the binding of tracer to untransfected cells.

human GIP receptor [6] = target: T1, human GIP receptor; test: competition binding vs 125I-GIP(1-30)NH2, COS-7 cells transfected with human GIP receptor
Method: as §1, §2

human GIP receptor [7] = target: T1, human GIP receptor; test: competition binding vs 125I-GIP(2-30)NH2, COS-7 cells transfected with human GIP receptor
Method: as §1, §2

human GIP receptor [8] = target: T1, human GIP receptor; test: homologous competition binding vs 125I-GIP(3-30)NH2, COS-7 cells transfected with human GIP receptor
Method: as §1

human GIP receptor [9] = target: T1, human GIP receptor; test: competition binding vs 125I-GIP(3-30)NH2, COS-7 cells transfected with human GIP receptor
Method: as §1, §2

human GIP receptor [10] = target: T1, human GIP receptor; test: homologous competition binding vs 125I-GIP(2-30)NH2, COS-7 cells transfected with human GIP receptor
Method: as §1

Binder	IC50 (inhibition of GIP(1-42) induced cAMP accumulation) (human GIP receptor [2]) [nM]	logIC50 (inhibition of GIP(1-42) induced cAMP accumulation) (human GIP receptor [2])	Ki (human GIP receptor [3]) [nM]	fold change of GIP(1-30)NH2 affinity (human GIP receptor [3]) [fold]	logIC (human GIP receptor [3])	Ki (Schild plot, cAMP accumulation) (human GIP receptor [4]) [nM]	other results
B1	450	-6.35	307	345	-6.51	–	right-shift of antagonistic potency compared to GIP(3-30)NH2 (human GIP receptor [1]): 38 fold; fold lower affinity compared to GIP(1-30)NH2 (human GIP receptor [3]): > 300 fold
EGTFISDYSIAMDKIHQQDFVNWLLAQK (also called human GIP3-30) [hGIP(3-30)]	–	–	–	–	–	15	IC50 (human GIP receptor [5]): 16 nM
EGTFISDYSIAMDKIKQQDFVNWLLAQK (Synthetic variant of hGIP(3-30)) [hGIP(3-30)H18K]	–	–	–	–	–	37	IC50 (human GIP receptor [5]): 7.8 nM
EGTFISDYSIAMDKIAQQDFVNWLLAQK (Synthetic variant of hGIP(3-30)) [hGIP(3-30)H18A]	–	–	–	–	–	35	IC50 (human GIP receptor [5]): 2 nM
B2	108	-6.97	21.5	24	-7.67	–	–
B3	11.8	-7.93	2.3	2.6	-8.63	–	fold shift in the dose-response curve of human GIP(1-42) by 1 µM antagonist (human GIP receptor [1]): 281 fold; fold decrease in affinity compared to GIP(1-30)NH2 (human GIP receptor [3]): 2.3 fold; IC50 (human GIP receptor [6]): 4.4 nM; fold change GIP(1-30)NH2 (human GIP receptor [6]): 14.5 fold; log (IC50) (human GIP receptor [6]): -8.35; IC50 (human GIP receptor [7]): 0.76 nM; fold change GIP(1-30)NH2 (human GIP receptor [7]): 1.6 fold; log (IC50) (human GIP receptor [7]): -9.12; IC50 (human GIP receptor [8]): 3.4 nM; fold change GIP(1-30)NH2 (human GIP receptor [8]): 2 fold; log (IC50) (human GIP receptor [8]): -8.47
B4	21.7	-7.66	14.3	16	-7.85	–	fold lower potency than GIP(1-30)NH2 (cAMP accumulation) (human GIP receptor [1]): > 3000 fold; log EC50 (cAMP accumulation) (human GIP receptor [1]): -8.43; potency, EC50 (cAMP accumulation) (human GIP receptor [1]): 3.7 nM; IC50 (human GIP receptor [6]): 26 nM; fold change GIP(1-30)NH2 (human GIP receptor [6]): 84.3 fold; log (IC50) (human GIP receptor [6]): -7.59; IC50 (human GIP receptor [9]): 7.7 nM; fold change GIP(1-30)NH2 (human GIP receptor [9]): 4.6 fold; log (IC50) (human GIP receptor [9]): -8.11; IC50 (human GIP receptor [10]): 2.7 nM; fold change GIP(1-30)NH2 (human GIP receptor [10]): 10.5 fold; log (IC50) (human GIP receptor [10]): -8.57
EGTFISDYSIAMEKIAQQDFVNWLLAQK [hGIP(3-30)D15EH18A]	–	–	–	–	–	7.9	–
EGTFISDYSIAMDAIAQQDFVNWLLAQK [hGIP(3-30)K16AH18A]	–	–	–	–	–	15	–
EGTFISDYSIAMDKIHQQDFVNWLLAQKGKKNDWKHNITQ [human GIP(3-42)]	–	–	–	–	–	–	fold lower antagonistic potency than human GIP(3-30)NH2 (cAMP accumulation) (human GIP receptor [1]): 26 fold; fold shift in the dose-response curve of human GIP(1-42) by 1 µM antagonist (human GIP receptor [1]): 7.3 fold
B5	11.9	-7.92	5.9	6.6	-8.23	–	–
B6	133	-6.88	79	89	-7.1	–	–
B7	–	–	–	–	-7.58	–	–
B8	342	-6.47	347	391	-6.46	–	fold decrease in affinity compared to GIP(1-30)NH2 (human GIP receptor [3]): 347 fold; fold lower affinity compared to GIP(1-30)NH2 (human GIP receptor [3]): > 300 fold; IC50 (human GIP receptor [6]): 1060 nM; fold change GIP(1-30)NH2 (human GIP receptor [6]): 3500 fold; log (IC50) (human GIP receptor [6]): -5.97; IC50 (human GIP receptor [7]): 340 nM; fold change GIP(1-30)NH2 (human GIP receptor [7]): 707 fold; log (IC50) (human GIP receptor [7]): -6.47; IC50 (human GIP receptor [9]): 370 nM; fold change GIP(1-30)NH2 (human GIP receptor [9]): 223 fold; log (IC50) (human GIP receptor [9]): -6.43
